# Source: patent EP1947117A2
# Assays:
# [1] = biological target: human TSH receptor on CHO cells (CHO-hTSHR clone JP09) (human) (UniProt P16473); assay: cell-based or functional assay
# [2] = biological target: hCG receptor on MA-10 cells (transformed murine Leydig cells) (murine) (UniProt P30730); assay: cell-based or functional assay
# [3] = biological target: porcine TSH receptor (solubilized porcine thyroid membranes) (porcine) (UniProt Q8SPP9); assay: competitive displacement of 125I-bTSH from solubilized porcine thyroid membranes
# [4] = biological target: hCG receptor on MA-10 cells (transformed murine Leydig cells) (murine) (UniProt P30730); assay: 125I-hCG receptor binding assay on MA-10 cells (Fig. 3b)
# [5] = biological target: rat TSH receptor on FRTL-5 cells (rat) (UniProt P21463); assay: cell-based or functional assay
# [6] = biological target: porcine TSH receptor (solubilized porcine thyroid membranes) (porcine) (UniProt Q8SPP9); assay: competitive binding assay to porcine thyroid membranes
# Chain of hCG receptor on MA-10 cells (transformed murine Leydig cells) (murine) (P30730 27-700): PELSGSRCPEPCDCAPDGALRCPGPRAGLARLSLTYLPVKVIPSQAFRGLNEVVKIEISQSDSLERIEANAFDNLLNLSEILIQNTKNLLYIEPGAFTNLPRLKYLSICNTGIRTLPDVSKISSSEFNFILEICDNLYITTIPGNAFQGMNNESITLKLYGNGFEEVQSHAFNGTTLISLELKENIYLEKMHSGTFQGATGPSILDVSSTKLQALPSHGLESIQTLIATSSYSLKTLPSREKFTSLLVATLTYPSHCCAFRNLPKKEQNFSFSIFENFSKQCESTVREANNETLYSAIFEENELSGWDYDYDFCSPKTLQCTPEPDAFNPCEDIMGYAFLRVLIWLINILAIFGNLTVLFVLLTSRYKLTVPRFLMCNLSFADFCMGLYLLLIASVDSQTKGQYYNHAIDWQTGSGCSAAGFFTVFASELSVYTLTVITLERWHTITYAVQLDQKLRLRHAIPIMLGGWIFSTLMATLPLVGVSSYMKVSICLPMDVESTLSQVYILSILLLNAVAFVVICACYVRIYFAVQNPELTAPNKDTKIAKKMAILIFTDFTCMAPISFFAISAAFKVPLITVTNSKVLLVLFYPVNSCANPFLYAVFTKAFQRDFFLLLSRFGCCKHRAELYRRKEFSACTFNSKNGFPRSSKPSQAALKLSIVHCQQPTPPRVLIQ
# Chain of rat TSH receptor on FRTL-5 cells (rat) (P21463 22-764): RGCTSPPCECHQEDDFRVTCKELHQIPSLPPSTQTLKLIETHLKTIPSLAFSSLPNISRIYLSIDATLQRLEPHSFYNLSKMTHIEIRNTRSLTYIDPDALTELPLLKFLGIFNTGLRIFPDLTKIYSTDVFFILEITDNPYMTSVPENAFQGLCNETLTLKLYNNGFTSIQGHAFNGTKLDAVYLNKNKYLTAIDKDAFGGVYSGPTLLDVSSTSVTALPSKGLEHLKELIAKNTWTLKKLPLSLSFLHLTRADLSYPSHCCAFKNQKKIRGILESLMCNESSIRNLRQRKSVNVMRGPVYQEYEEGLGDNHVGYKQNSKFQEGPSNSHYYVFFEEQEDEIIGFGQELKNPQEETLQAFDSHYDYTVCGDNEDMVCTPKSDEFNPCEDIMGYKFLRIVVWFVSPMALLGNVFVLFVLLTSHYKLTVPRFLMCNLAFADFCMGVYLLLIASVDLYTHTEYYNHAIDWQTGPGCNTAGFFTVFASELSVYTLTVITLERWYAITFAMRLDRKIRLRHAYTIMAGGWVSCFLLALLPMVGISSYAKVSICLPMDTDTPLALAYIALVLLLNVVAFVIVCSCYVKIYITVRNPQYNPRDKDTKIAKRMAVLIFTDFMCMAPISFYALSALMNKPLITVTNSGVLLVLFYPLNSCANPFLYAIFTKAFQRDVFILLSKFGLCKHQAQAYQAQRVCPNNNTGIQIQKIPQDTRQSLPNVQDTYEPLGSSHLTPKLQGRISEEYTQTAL
# Chain of porcine TSH receptor (solubilized porcine thyroid membranes) (porcine) (Q8SPP9 22-764): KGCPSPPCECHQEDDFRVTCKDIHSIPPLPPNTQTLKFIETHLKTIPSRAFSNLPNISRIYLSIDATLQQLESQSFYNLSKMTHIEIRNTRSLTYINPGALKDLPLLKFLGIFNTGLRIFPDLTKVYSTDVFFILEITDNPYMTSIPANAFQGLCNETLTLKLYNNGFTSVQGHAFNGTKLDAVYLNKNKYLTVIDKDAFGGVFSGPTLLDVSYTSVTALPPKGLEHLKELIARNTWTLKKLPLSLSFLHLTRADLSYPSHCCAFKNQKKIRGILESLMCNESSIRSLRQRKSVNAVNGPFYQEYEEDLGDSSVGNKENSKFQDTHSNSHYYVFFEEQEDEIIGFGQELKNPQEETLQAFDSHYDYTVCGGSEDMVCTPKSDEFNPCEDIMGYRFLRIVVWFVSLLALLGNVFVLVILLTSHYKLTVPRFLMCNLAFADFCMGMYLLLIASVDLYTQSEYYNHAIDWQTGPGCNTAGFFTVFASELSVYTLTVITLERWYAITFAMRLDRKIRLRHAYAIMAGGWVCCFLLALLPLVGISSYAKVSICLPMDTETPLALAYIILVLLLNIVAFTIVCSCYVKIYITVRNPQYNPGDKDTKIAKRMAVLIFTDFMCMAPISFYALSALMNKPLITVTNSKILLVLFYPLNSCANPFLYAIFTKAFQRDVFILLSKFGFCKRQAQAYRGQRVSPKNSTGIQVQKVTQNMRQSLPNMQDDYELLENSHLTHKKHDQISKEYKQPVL
Substance,"cAMP stimulation in JP09 cells, EC50 [1] [ng/mL]","cAMP stimulation in JP09 cells, relative potency (WT=1) [1]","Progesterone synthesis in MA 10 cells, EC50 [2] [ng/mL]","Progesterone synthesis in MA 10 cells, Max [2] [%]",EC25 of inhibition of 125I-bTSH binding [3] [ng/mL],other results
hTSH mutant WT α / TSHβ-L69R (from UniProt P01215 25-116; P01222 21-132) (ligand),2.75,2.4 fold (WT=1),,,,
hCG mutant α-Q20K / WT-hCGβ (from UniProt P01215 25-116; P0DN86 21-165) (ligand),,,2.96,134,,
hTSH mutant α-P16K+Q20K / WT-hTSHβ (from UniProt P01215 25-116; P01222 21-132) (ligand),0.37,11.8 fold (WT=1),,,6.4,
hTSH mutant α-P16K+F17T / WT-hTSHβ (from UniProt P01215 25-116; P01222 21-132) (ligand),3.52,1.9 fold (WT=1),,,,
WT-hTSH (wild-type recombinant human thyroid stimulating hormone) (from UniProt P01215 25-116; P01222 21-132) (ligand),,,,,81.3,
hTSH mutant α-R67K / WT-hTSHβ (from UniProt P01215 25-116; P01222 21-132) (ligand),7.36,0.9 fold (WT=1),,,62.5,
hCG mutant α-P16K / WT-hCGβ (from UniProt P01215 25-116; P0DN86 21-165) (ligand),,,2.05,161,,"stimulation of progesterone production in MA-10 cells, fold more active than WT-hCG [2]: 4 fold; fold more active than WT-hCG in receptor binding activity [4]: 4 fold"
hCG mutant α-Q50P / WT-hCGβ (from UniProt P01215 25-116; P0DN86 21-165) (ligand),,,3.9,137,,
hCG mutant α-R67K / WT-hCGβ (from UniProt P01215 25-116; P0DN86 21-165) (ligand),,,4.6,145,,
hTSH mutant α-Q13K+P16K+Q20K+E14K / WT-hTSHβ (from UniProt P01215 25-116; P01222 21-132) (ligand),0.17,39.4 fold (WT=1),,,2.1,"efficacy (maximal response) of cAMP stimulation, fold over WT-hTSH [1]: > 1.5 fold"
hCG mutant α-Q13K+P16K+Q20K+E14K / WT-hCGβ (from UniProt P01215 25-116; P0DN86 21-165) (ligand),,,1.65,205,,
hTSH mutant α-Q50P / WT-hTSHβ (from UniProt P01215 25-116; P01222 21-132) (ligand),5.54,1.2 fold (WT=1),,,77.5,
hCG mutant α-T11K / WT-hCGβ (from UniProt P01215 25-116; P0DN86 21-165) (ligand),,,2.79,156,,
hTSH mutant WT α / hTSHβ-I58R (from UniProt P01215 25-116; P01222 21-132) (ligand),,,,,,"potency, fold increase over hTSH [1]: 2 to 4 fold; potency, fold increase over hTSH [5]: 2 to 4 fold"
hTSH mutant WT α / hTSHβ-I58R+E63R+L69R (from UniProt P01215 25-116; P01222 21-132) (ligand),,,,,,"efficacy of cAMP stimulation in CHO-hTSH cells (Fig. 2g), fold increase [1]: 1.7 fold; potency of cAMP stimulation in CHO-hTSH cells (Fig. 2g), fold increase [1]: 50 fold"
hTSH mutant α-T11K / WT-hTSHβ (from UniProt P01215 25-116; P01222 21-132) (ligand),4.47,1.5 fold (WT=1),,,68.3,
hTSH mutant α-Q13K+P16K+Q20K / WT-hTSHβ (from UniProt P01215 25-116; P01222 21-132) (ligand),0.28,23.9 fold (WT=1),,,2.3,"half-maximal stimulation of 3H-thymidine incorporation in FRTL-5 cells, fold lower concentration than WT-hTSH [5]: 18 fold"
hCG mutant α-Q13K+P16K+Q20K / WT-hCGβ (from UniProt P01215 25-116; P0DN86 21-165) (ligand),,,1.58,216,,
hTSH mutant α-Q20K / WT-hTSHβ (from UniProt P01215 25-116; P01222 21-132) (ligand),1.16,5.8 fold (WT=1),,,21.3,
hTSH mutant WT α / hTSHβ-E63R (from UniProt P01215 25-116; P01222 21-132) (ligand),,,,,,"potency, fold increase over hTSH [1]: 2 to 4 fold; potency, fold increase over hTSH [5]: 2 to 4 fold"
hTSH mutant α-P16K / WT-hTSHβ (from UniProt P01215 25-116; P01222 21-132) (ligand),1.05,6.4 fold (WT=1),,,189,fold greater affinity than WT [6]: 5 fold
hTSH mutant α-Q13K+P16K+Q20K+E14K / TSHβ-L69R (from UniProt P01215 25-116; P01222 21-132) (ligand),0.07,95.7 fold (WT=1),,,1.3,"efficacy (maximal response) of cAMP stimulation, fold over WT-hTSH [1]: > 1.5 fold"
hTSH mutant α-Q13K / WT-hTSHβ (from UniProt P01215 25-116; P01222 21-132) (ligand),1.89,3.5 fold (WT=1),,,22.5,
hCG mutant α-Q13K / WT-hCGβ (from UniProt P01215 25-116; P0DN86 21-165) (ligand),,,2.46,115,,
hCG mutant α-P16K+Q20K / WT-hCGβ (from UniProt P01215 25-116; P0DN86 21-165) (ligand),,,1.7,212,,
hTSH mutant WT α / hTSHβ-I58R+E63R (from UniProt P01215 25-116; P01222 21-132) (ligand),,,,,,"efficacy of cAMP stimulation in CHO-hTSH cells (Fig. 2g), fold increase [1]: 1.5 fold; potency of cAMP stimulation in CHO-hTSH cells (Fig. 2g), fold over wild type hTSH [1]: 15 fold"
hTSH mutant α-Q13K+P16K+Q20K / TSHβ-L69R (from UniProt P01215 25-116; P01222 21-132) (ligand),0.19,35.3 fold (WT=1),,,1.8,"half-maximal stimulation of 3H-thymidine incorporation in FRTL-5 cells, fold lower concentration than WT-hTSH [5]: 27 fold"
